Measurements reported in the supplement of paper PMC10567573.

B1: VPS39 (parent)
chain: TTLLKCYLHTNVALVAPLLRLENN

Variants of: B1
Experiment: protein stability index of a GFP-peptide fusion (GPS, HEK-293T) (PSI 1-6); higher = more stable
Details: c terminus: a fixed tail appended
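Note: lentivirally expressed fusions sorted by FACS into six bins by GFP to DsRed ratio, PSI derived from sequencing read proportions per bin multiplied by bin number.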

Protein stability index: each site, then its substitutions
H9: N 3.08 | P 1.59 | Y 1.63
N24: H 3.11 | I 2.02 | L 3.19 | K 2.08 | V 1.5
L19: P 1.52 | C 1.35 | Q 1.46 | W 2.61 | E 2.02 | D 2.11 | G 1.97 | T 2.11
C6: K 2.11 | P 2.19 | Q 3.64 | I 1.15 | E 2.38 | L 3.27 | N 1.91 | A 1.25 | T 2.56
L4: K 2.01 | M 3.92 | S 3.47 | F 3.81 | N 1.25 | H 2.36 | T 2.83 | Q 1.92 | W 1.78 | V 3.82
L3: R 2.57 | D 2.22 | Y 3.01 | Q 3.31 | N 3.03 | G 1.84 | I 2.18
T10: E 1.46 | G 3.27 | L 2.35 | H 2.79 | R 3.11 | W 1.94 | Y 2.73
Y7: H 3.18 | V 2.59 | E 1.73 | N 2.9 | D 2.27 | P 1.7 | F 2.26
T1: M 2.75 | Y 3.27 | C 1.07 | I 2.46
R20: I 3.11 | P 3.33 | K 3.52 | E 1.83 | T 3.38 | W 2.11 | M 1.5 | V 2.63
L8: P 1.13 | V 2.7 | E 1.85 | H 1.82 | K 1 | G 1.57 | Q 2.14 | I 3.7 | D 1.75 | A 2.49 | T 2.5 | N 1.98 | F 4.45
L14: I 3.28 | Y 3.67 | F 1.55 | H 3.13 | V 2.25 | E 1.57 | T 2.5 | D 1.5 | P 1.9 | N 2.16 | A 2.83
N23: R 2.37 | F 2.11 | I 2.67 | Y 2.99 | E 2.49 | A 2.22 | V 2.67 | H 2.29 | Q 3.88 | T 2.32 | L 2.85
A13: M 2.14 | V 3.55 | K 2.63 | W 3.55 | P 2.2
T2: R 2.85 | L 3.5 | Q 2.1
L18: F 2.06 | K 2.08 | M 3.28 | T 2.51 | E 1.55 | Y 2.16
K5: E 2.22 | F 1.07 | H 2.48 | S 4.1
E22: H 2.49 | R 2.64 | K 1.79 | M 2.31 | N 2.13 | L 2.73 | W 1.4 | I 1.99
V15: C 1.65 | D 1.31 | T 2.11 | I 2.17 | W 2.17 | N 2.07
P17: L 2.13 | M 1.17 | E 4.79 | R 1.38
L21: P 2.73 | G 1.6 | H 1.51 | D 1.59 | Y 1.84 | T 2.9 | M 3.38 | E 2.09 | K 1.74 | F 3.04
V12: T 3.04 | N 2.06 | K 1.45 | Q 1.95
A16: G 2.87 | S 5.08 | R 2.05 | D 3.39 | W 1.72 | T 2.94 | H 3.78 | E 2.57
N11: Q 4.1 | K 2.86 | D 4 | H 3.65 | C 2.59 | G 1.33
